Square brackets hold non-standard residues; d marks the D form. Ends that are not written are not given here. pT = C[C@@H](OP(=O)(O)O)[C@H](N)C(=O)O; pS = N[C@@H](COP(=O)(O)O)C(=O)O
How the values were obtained:
Experiment in all cases: ITC
[1] = biological target: aprataxin FHA domain K38A (residues 1-105)
[2] = biological target: aprataxin FHA domain (residues 1-105)
[3] = biological target: T1, APLF FHA domain (residues 1-106) (UniProt Q8IW19 1-106)
T1 chain: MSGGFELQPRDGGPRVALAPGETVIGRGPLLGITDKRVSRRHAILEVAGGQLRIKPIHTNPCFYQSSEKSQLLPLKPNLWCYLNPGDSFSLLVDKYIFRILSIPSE

Sequence of aprataxin FHA domain (residues 1-105) (chain, as listed by the source): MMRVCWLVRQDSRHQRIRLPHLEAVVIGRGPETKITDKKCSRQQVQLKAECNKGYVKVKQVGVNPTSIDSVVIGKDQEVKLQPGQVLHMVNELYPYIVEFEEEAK
Sequence of aprataxin FHA domain K38A (residues 1-105) (chain, as listed by the source K38A): as the sequence (chain, as listed by the source) above, with K38A counted along it

Row | Binder | Kd [1] [µM] | Kd [2] [µM] | Kd [3] [µM]
1 | YAG[pS][pT]DEN[pT]DSEEHQ-NH2 (N-terminus assumed; SMILES C[C@H](NC(=O)[C@@H](N)Cc1ccc(O)cc1)C(=O)NCC(=O)N[C@@H](COP(=O)(O)O)C(=O)N[C@H](C(=O)N[C@@H](CC(=O)O)C(=O)N[C@@H](CCC(=O)O)C(=O)N[C@@H](CC(N)=O)C(=O)N[C@H](C(=O)N[C@@H](CC(=O)O)C(=O)N[C@@H](CO)C(=O)N[C@@H](CCC(=O)O)C(=O)N[C@@H](CCC(=O)O)C(=O)N[C@@H](Cc1c[nH]cn1)C(=O)N[C@@H](CCC(N)=O)C(N)=O)[C@@H](C)OP(=O)(O)O)[C@@H](C)OP(=O)(O)O) [XRCC1 515-529 peptide phosphorylated on Ser518, Thr519 and Thr523] | 3.8 | 0.5 | 11
2 | YDESTDEES (HELM PEPTIDE1{Y.D.E.S.[C[C@@H](OP(=O)(O)O)[C@H](N[*:1])C(=O)[*:2]].D.E.E.S.[am]}$$$$V2.0; N-terminus assumed; SMILES C[C@@H](OP(=O)(O)O)[C@H](NC(=O)[C@H](CO)NC(=O)[C@H](CCC(=O)O)NC(=O)[C@H](CC(=O)O)NC(=O)[C@@H](N)Cc1ccc(O)cc1)C(=O)N[C@@H](CC(=O)O)C(=O)N[C@@H](CCC(=O)O)C(=O)N[C@@H](CCC(=O)O)C(=O)N[C@@H](CO)C(N)=O) [XRCC4 229-237 peptide phosphorylated on Thr233] | 6.8 | 2.1 | 3.6
3 | YDESTDEES (HELM PEPTIDE1{Y.D.E.[O=C([C@H](COP(=O)(O)O)N[*:1])[*:2]].[C[C@@H](OP(=O)(O)O)[C@H](N[*:1])C(=O)[*:2]].D.E.E.S.[am]}$$$$V2.0; N-terminus assumed; SMILES C[C@@H](OP(=O)(O)O)[C@H](NC(=O)[C@H](COP(=O)(O)O)NC(=O)[C@H](CCC(=O)O)NC(=O)[C@H](CC(=O)O)NC(=O)[C@@H](N)Cc1ccc(O)cc1)C(=O)N[C@@H](CC(=O)O)C(=O)N[C@@H](CCC(=O)O)C(=O)N[C@@H](CCC(=O)O)C(=O)N[C@@H](CO)C(N)=O) [XRCC4 229-237 peptide phosphorylated on Ser232 and Thr233] | 1.9 | 0.25 | 0.47
4 | YAG[pS][pT]DEN[pT]D[pS]EEHQ-NH2 (N-terminus assumed; SMILES C[C@H](NC(=O)[C@@H](N)Cc1ccc(O)cc1)C(=O)NCC(=O)N[C@@H](COP(=O)(O)O)C(=O)N[C@H](C(=O)N[C@@H](CC(=O)O)C(=O)N[C@@H](CCC(=O)O)C(=O)N[C@@H](CC(N)=O)C(=O)N[C@H](C(=O)N[C@@H](CC(=O)O)C(=O)N[C@@H](COP(=O)(O)O)C(=O)N[C@@H](CCC(=O)O)C(=O)N[C@@H](CCC(=O)O)C(=O)N[C@@H](Cc1c[nH]cn1)C(=O)N[C@@H](CCC(N)=O)C(N)=O)[C@@H](C)OP(=O)(O)O)[C@@H](C)OP(=O)(O)O) [XRCC1 515-529 peptide phosphorylated on Ser518, Thr519, Thr523 and Ser525] |  | 0.87 | 11
5 | YDE[pS][pT]DEE[pS]-NH2 (N-terminus assumed; SMILES C[C@@H](OP(=O)(O)O)[C@H](NC(=O)[C@H](COP(=O)(O)O)NC(=O)[C@H](CCC(=O)O)NC(=O)[C@H](CC(=O)O)NC(=O)[C@@H](N)Cc1ccc(O)cc1)C(=O)N[C@@H](CC(=O)O)C(=O)N[C@@H](CCC(=O)O)C(=O)N[C@@H](CCC(=O)O)C(=O)N[C@@H](COP(=O)(O)O)C(N)=O) [XRCC4 229-237 peptide phosphorylated on Ser232, Thr233 and Ser237] | 1.3 | 0.14 | 0.42
6 | YAGSTDENTDSEEHQ (HELM PEPTIDE1{Y.A.G.[O=C([C@H](COP(=O)(O)O)N[*:1])[*:2]].[C[C@@H](OP(=O)(O)O)[C@H](N[*:1])C(=O)[*:2]].D.E.N.T.D.S.E.E.H.Q.[am]}$$$$V2.0; N-terminus assumed; SMILES C[C@H](NC(=O)[C@@H](N)Cc1ccc(O)cc1)C(=O)NCC(=O)N[C@@H](COP(=O)(O)O)C(=O)N[C@H](C(=O)N[C@@H](CC(=O)O)C(=O)N[C@@H](CCC(=O)O)C(=O)N[C@@H](CC(N)=O)C(=O)N[C@H](C(=O)N[C@@H](CC(=O)O)C(=O)N[C@@H](CO)C(=O)N[C@@H](CCC(=O)O)C(=O)N[C@@H](CCC(=O)O)C(=O)N[C@@H](Cc1c[nH]cn1)C(=O)N[C@@H](CCC(N)=O)C(N)=O)[C@@H](C)O)[C@@H](C)OP(=O)(O)O) [XRCC1 515-529 peptide phosphorylated on Ser518 and Thr519] | 12.8 | 1.5 | 8.1
7 | YAGSTDENTDSEEHQ (HELM PEPTIDE1{Y.A.G.S.T.D.E.N.[C[C@@H](OP(=O)(O)O)[C@H](N[*:1])C(=O)[*:2]].D.[O=C([C@H](COP(=O)(O)O)N[*:1])[*:2]].E.E.H.Q.[am]}$$$$V2.0; N-terminus assumed; SMILES C[C@H](NC(=O)[C@@H](N)Cc1ccc(O)cc1)C(=O)NCC(=O)N[C@@H](CO)C(=O)N[C@H](C(=O)N[C@@H](CC(=O)O)C(=O)N[C@@H](CCC(=O)O)C(=O)N[C@@H](CC(N)=O)C(=O)N[C@H](C(=O)N[C@@H](CC(=O)O)C(=O)N[C@@H](COP(=O)(O)O)C(=O)N[C@@H](CCC(=O)O)C(=O)N[C@@H](CCC(=O)O)C(=O)N[C@@H](Cc1c[nH]cn1)C(=O)N[C@@H](CCC(N)=O)C(N)=O)[C@@H](C)OP(=O)(O)O)[C@@H](C)O) [YAGSTDENpTDpSEEHQ] |  | 33 | 17
8 | YAGSTDENTDSEEHQ (HELM PEPTIDE1{Y.A.G.S.T.D.E.N.[C[C@@H](OP(=O)(O)O)[C@H](N[*:1])C(=O)[*:2]].D.S.E.E.H.Q.[am]}$$$$V2.0; N-terminus assumed; SMILES C[C@H](NC(=O)[C@@H](N)Cc1ccc(O)cc1)C(=O)NCC(=O)N[C@@H](CO)C(=O)N[C@H](C(=O)N[C@@H](CC(=O)O)C(=O)N[C@@H](CCC(=O)O)C(=O)N[C@@H](CC(N)=O)C(=O)N[C@H](C(=O)N[C@@H](CC(=O)O)C(=O)N[C@@H](CO)C(=O)N[C@@H](CCC(=O)O)C(=O)N[C@@H](CCC(=O)O)C(=O)N[C@@H](Cc1c[nH]cn1)C(=O)N[C@@H](CCC(N)=O)C(N)=O)[C@@H](C)OP(=O)(O)O)[C@@H](C)O) [XRCC1 515-529 peptide phosphorylated solely on Thr523] |  | 42 | 35
9 | YAGSTDENTDSEEHQ (HELM PEPTIDE1{Y.A.G.S.[C[C@@H](OP(=O)(O)O)[C@H](N[*:1])C(=O)[*:2]].D.E.N.T.D.S.E.E.H.Q.[am]}$$$$V2.0; N-terminus assumed; SMILES C[C@H](NC(=O)[C@@H](N)Cc1ccc(O)cc1)C(=O)NCC(=O)N[C@@H](CO)C(=O)N[C@H](C(=O)N[C@@H](CC(=O)O)C(=O)N[C@@H](CCC(=O)O)C(=O)N[C@@H](CC(N)=O)C(=O)N[C@H](C(=O)N[C@@H](CC(=O)O)C(=O)N[C@@H](CO)C(=O)N[C@@H](CCC(=O)O)C(=O)N[C@@H](CCC(=O)O)C(=O)N[C@@H](Cc1c[nH]cn1)C(=O)N[C@@H](CCC(N)=O)C(N)=O)[C@@H](C)O)[C@@H](C)OP(=O)(O)O) [XRCC1 515-529 peptide phosphorylated on Thr519] | 46.3 | 17 | 30

Source: publication PMC4655838 (2015)
